Experimental data taken from the DeepSol protein solubility set.

Assay: soluble on expression in E. coli; label from the status in PepcDB or PDB records

Sequence	soluble on expression in E. coli
MGSDKIHHHHHHMKKTYVLDTNVLLHDPMALFRFEDNDLVIPITVIEEIDRFKKDLNERGRNARQISRLLDGFRSKGHLIEGITLDHGGKLRVVMLEKTFLEQLPSGLIANANDNAILAVALALQQQNGQPTILVTKDTNLRIKADATGLCAEDYESDKIDFSELYSGTAEVYLAPDQLQVFRREGGLDLSGEFFPNQALTLVDETNLSHTLLGRYRASDRRVVPLIQPPKMGISRIHARNREQQFALDLLLDDNIQLVTLVGKAGTGKTLLAVAAGLHKVADERHFSRLLVSRPIFPMGRDLGFLPGDLQEKLAPWMQPIIDNLDFILGGANNNGDRPSNKQQNYQDLMGMNLLQIEPLTYIRGRSIPRQFMIVDEAQNLTPHEIKTILTRAGEGTKIVLTGDAYQIDNPYVDASSNGLTYVVEKFKNEAIAGHITLERGERSPLAELSANLL	not soluble
MGSDKIHHHHHHMKKVAIVQSNYIPWKGYFDMIAAVDEFILYDDMQYTRRDWRNRNQIKTPQGVQWLTVPVLVKGKYHQKIRETEIDGTDWAAAHWKALVQNYRRSPHFTEIAAWLEPLYLAETFTHISQLNRRFIEAICNYLGIKTVIKNSWDYTLLDGKTERLADLCVQAGGTEYISGPAAKDYVDEQVFKENGIKLTWFDYIGYPEYQQLWGEFTHGVTILDLLLNCGKNAKRYMKYVE	not soluble
MGSDKIHHHHHHMKKYYIYILTAVLPILWGACNNGDDIDTKHSIFSTEPMEHNGFDEWLLANYTYPYNVDFKYRMQDIESDHKYNLVPADYDKSVALAKIIKHVWMEAYTELAGPAFLRSYVPKTFHLIGSPAYDSSGTKVLGTAEGGKKITLYEVNSLDFENVDIEVLNEYYFKTMHHEFAHILHQKRNYDPSFDRITEGKYVGSDWYFYVAENGNSYLREDADAWPEGFVTAYAMSEAREDFVENIAMYVTHDQAYWDNMLKVAGTAGAAIINQKFTIVYNYMLETWGINLDDLREIVLRRQQEIPELDLSTIE	not soluble
MGSDKIHHHHHHMKLDPKLAQDIVNKMMTQIPYNVNMMDDQGYIIASGDPQRLNTLHVGAVAAINQQTTLPMHDSYGDHGQPGVNMPIVFNDQIIGVIGITGDPEKVTPLASLLRVATELLLDQNQHNLQEKQYETTLNRFLYHWSQVTQQIDTNTNLLLEAQQLGIDILKPRAAIVLPKQTLPIGLLDATDFQFDLDTTTLIVLTALPATIARFTTYCQTGQHRLGIGLFDRNVGNSVRQARQTLRISQIFQRPDFIHYSQIAFIQALLDGHLHVTDLQQRFQKLASTANGRELIKTLGMFVRLNTNVLQTAAALHIHRNTLSYRLDRLQQIFQLDPHQTLDLFTLYVGYLYFKADK	not soluble
MGSDKIHHHHHHMKLFTSCKESVKNSIDTKYFSIAHLHSEEETMSIHIHDCYEIYYSISGENQFLIDNKLYYINPGNLFAVNEFESHYVSQVNNSTHERIVISIHPDFLKSLCTSKTNLTYCFKHRGSNFCHKVSLNKEQQSRFMYFINKIIGSHGFGADMIEYASFIELMIFLTSLFINNGESLTPIYKYSNQIEEIIRYINDNVTNDITVKHLAEHFFLSESYICRIFKLSTGTTINKYITARRISMAKALLSNGSSINDVYVKCGFNDYSNFLKSFKKAVGISPKKYSTFSTS	not soluble
MGSDKIHHHHHHMKLISVRRIWEQAAHNAFTDLIAFQEALFCVFREGTAHVSPDGALRILRSVDGGETWQSVALIRSDEADLRDGKLIEYQGELLLLGGGTLHNKSGLQSHLWRSADGRVWSDALKIADKGYWLWRLTEHQNTLYGVGYRPGPDGDTRLYKSEDGVQFKTWLKVFNNQGYVNETAIVFDQDSGFCLLRRDPVWGPEFFGLLGHSRAPFTDWQWQELDKRIGGPVMLMYQSRLLAVVRLYDEQVRTALVEIHSDTGVVQELLTLPSKGDTSYAGVVIDGNELWVSYYSSHELADSQLDTQNSLDESSRAGKAKTMIYFAKILLS	not soluble
MGSDKIHHHHHHMKLLDHKLSLLEITDEEKSDEIILNLSRNVKKDLEDIVVANVSMENVLVMNIKVPPTLNKQNAVEYATMEISRNLGILPEQLVVAPLDIRGGEGLFFVSKVDQVKSFVTDLMKKEFPETDVVIPDIVKYLEVFEFYFGKRLKGTSVLTVISFLSDYYSIVVLENNHYRSLRLLFSMFWDYMDIVVENTGIQPKELIEGTVNVDLSFLQPYFGDFLIELDREVKVSLDEVNLSRVNQFFYIVDPPIFSPVLSQSLEKFEGVALKQGIVPSFKPGISLGTLGLMIRGGREIGKVKHLSV	not soluble
MGSDKIHHHHHHMKLPRFGVEEWLNVHENSAIYDIAGVSISSLTLEELFALSGTNPEDFYKKLQGTKLNYGWIEGSPAFKKSVSQLYTGVKPEQILQTNGATGANLLVLYSLIEPGDHVISLYPTYQQLYDIPKSLGAEVDLWQIEEENGWLPDLEKLRQLIRPTTKMICINNANNPTGAVMDRTYLEELVEIASEVGAYILSDEVYRSFSELDVPSIIEVYDKGIAVNSLSKTYSLPGIRIGWVAANHQVTDILRDYRDYTMICAGVFDDLVAQLALAHYQEILERNRHILEENLAILDQWIEEEPLVSYIRPAVVSTSFVKIAVDMPMEDFCLQLLQEHGVLLVPGNRFERDGYVRLGFACEQETLIKGLEKLSQFLRRFDKEN	not soluble
MGSDKIHHHHHHMKLSCSQSELNNALQLVSRAVSNRPTHPVLANVLLAADEVTGKLRLTGFDLSLGIQTSISASIDSSGAITLPAKLFGEIVSKLSNDSPLVLTSDETSQQVELTSKSGTYQVRGMLSDDFPELPLVENGTSFKLNPLLLSNAIKSTLFASSTDDAKQLLTGVNLTFDGYGIESAATDGHRLAVLNLNNILSDSKEIDSSIKFEKFSITLPSKSLREVEKFLSTCDISHPINFFIDKGQVVFISVEDIITIRALEGSYPNYSQLLPDTFENELEFDRKEFISSLERIAVLADQHNNVIKVTTDGSANLIKISTDAQDIGTGYESLPVSYKGDSFQIAFNVRYLLDGLKVIDSNLIKLSCNSPTTPAIFSPINSDVNFTYLVMPIQIRN	not soluble
MGSDKIHHHHHHMKLSFEVLEALDAIDRAGTFAEAAVLIHRVPSALSYLVQKAESDLGVILFDRSGRRAQLTEAGRLLVEDGRRLLQAGRELESKVRGVHAGWEAELRLCLDEILPLPSLWPHVRAFYDMELTTRLRLSTEVLGGVWDALVTGRADIAIGAAGEPPHAPNIAARPIGLLRHVFVVAPHHPLAAVEQPLDSDTISSHRGVIISDTSRALEPRSVAIHDGQPVIIVPTLAAKLDLLCEGMAVGMLPAPVVEEAIRQGKLVERRVIGVRDHTTCYLGWREDKTGRALKWWINRLDQIDLISTLFSTRGVAA	not soluble
MGSDKIHHHHHHMKMSEKKEARVVINDLLAEQYANAFKAKEEGRPVGWSTSVFPQELAEVFDLNVLYPENQAAGVAAKKGSLELCEIAESKGYSIDLCAYARTNFGLLENGGCEALDMPAPDFLLCCNNICNQVIKWYENISRELDIPLIMIDTTFNNEDEVTQSRIDYIKAQFEEAIKQLEIISGKKFDPKKFEEVMKISAENGRLWKYSMSLPADSSPSPMNGFDLFTYMAVIVCARGKKETTEAFKLLIEELEDNMKTGKSSFRGEEKYRIMMEGIPCWPYIGYKMKTLAKFGVNMTGSVYPHAWALQYEVNDLDGMAVAYSTMFNNVNLDRMTKYRVDSLVEGKCDGAFYHMNRSCKLMSLIQYEMQRRAAEETGLPYAGFDGDQADPRAFTNAQFETRIQGLVEVMEERKKLNRGEI	not soluble
MGSDKIHHHHHHMKNFVVTTSHKPDREQVMKAKELAEKLGTIYVSRRRLKEFKVDFYYVVEKNRISIKWPGGEFFFHPSSAILRMRNIRSGQKDYLIESLQPEGNEIVLDTTFGLGSEAILMAAFLPEGKVIGLEGSIHIYTIVKYGMENFETDIRWLKDALKRIELYHANFKEYIRSQPDNSFDVVYCDPMFENPVYESSAMNPLRPFAVYDTVNEEDIEEMLRIAKKKVILKSHVKDSLFKRIRVDELKGSRKSGVLYGVIYKR	not soluble
MGSDKIHHHHHHMKPNNWVSSSQATELLSKQLVTWPLAEKNYKALEAVQVKSFDMGGFSIRAQFNPARIVSTGAKVDARSLKERKCFLCPENLPVEQERLPFGFRHLVLCNPYPIFPQHFTIPTRKHTPQLILPQWNDFLELTRRLAPFTVFYNGPRSGASAPDHAHFQAVTRGIMPLDEEVTQFIRQSYASVYDNRIYPLTGNLRPGLVIQAATEEAATRLFKKIYAALPILPGEPEPMMNIFGSYYDNNWVITVIPRKRHRPWQYEAEGNDHLLSSPGAADIGGLFITPLEKDFKKINPELLRDVYQQVCLNDRDVEEIFVHLSSN	not soluble
MGSDKIHHHHHHMKQEFLHIASSLWATVAAQISRHTGQTFAPESLTPIGGGCINQTFCIRDHERQYFVKLNKAGNLAMFESEAAGLGEILDSASLRVPQPLCCGSHHDDAWLVLEFIDLQNRGNAAALGIGLANMHRHTAETFGWIRDNTIGSTPQRNATASDWISFWRQHRLGYQLNLARKNGHTGSLQSLGERLLSEFQHFFTDTLPLPSLLHGDLWGGNYAFDQDGQPVIFDPAVYYGDREADLAMTELFGGFPPDFQAAYRDTWPVETGYTTRKQLYNLYHILNHLNLFGPQYLSQAEITMKKLLAELY	not soluble
MGSDKIHHHHHHMKQIGIIGCGWFGLPLAQALKQLGHKVIGTKRSIEGCEQLASLGITACPLDLNDDIFYNEAFANNTFANNINELLECQVLVINIPPGLRKKAGKAESRYLEQLSNLVHFIGPRGYQKLVFISTTGVYPAGDDAELPLSEADAKAHNDASEILLNAEALFAPMDNSCILRFAGLVGPNRHPGRFFAGKTGISGANVAVNLVHLDDCIGAVIKVINADKTAPVYNIVAPEHPSRGEFYPLATTHLGLVAPVFNQEVMPTKVISGALICQQLGFIYQYPDPLKMLYAC	not soluble
MGSDKIHHHHHHMKQLVGIPESMLIPLIARAKEYENEKPIIKDALSKKIFDGLDDMYKNVTCDDMSQIGISIRTVIIDCVTKRLIKDNKDLIVVNIGCGLDTRFQRFNKEKISWIDLDVPESIEIRKTFFKESNSYKMISKSMLDYSWIDDVKNYKFFNSKSDILFIIEGVLMYFDESVMTQLLDTIIKKMGDHNLTFAIEFCSKTIANNTKRHQSVSKLSSQPVFKYGYNDLKKLNEILPNTIRVIHEYNYFDYYKNRWGLFGYCRFIPYLKKRLNNKIVLMKYKVPKRQRH	not soluble
MGSDKIHHHHHHMKREEIADLMAFVVVAEERSFTRAAARLSMAQSALSQIVRRIEERLGLRLLTRTTRSVVPTEAGEHLLSVLGPMLHDIDSAMASLSDLQNRPSGTIRITTVEHAAKTILLPAMRTFLKSHPEIDIQLTIDYGLTDVVSERFDAGVRLGGEMDKDMIAIRIGPDIPMAIVGSPDYFSRRSVPTSVSQLIDHQAINLYLPTSGTANRWRLIRGGREVRVRMEGQLLLNTIDLIIDAAIDGHGLAYLPYDQVERAIKEKKLIRVLDKFTPDLPGYHLYYPHRRHAGSAFSLFIDRLKYKGAV	not soluble
MGSDKIHHHHHHMKRILVSLYEKEKYLDILRELHEKGWEIWASSGTAKFLKSNGIEANDVSTITGFENLLGGLVKTLHPEIFAGILGPEPRWDVVFVDLYPPPDIDIGGVALLRAAAKNWKKVKPAFDMETLKLAIEIDDEETRKYLAGMTFAFTSVYDSIRANQFVEGISLAFKREDLQLRYGENPHEKAFVYGKPAFEILHEGKTISFNNILDAENAWFMAKNLPRMGAVVVKHQSPCGAAIGEDKVEIVKKAIEADDESSFGGILAVNFEMDEEVAKSLKKYLEVIVAPSFTQEAIEVLSKKKVRLLKPGDYASWAGKMAFGSLVLSERKYPEGNFELVVGEPLSEKELEDLEFAYRVVEGAKSNAVLIAKDGVTVGIGSGQPSRKRAAWIATVMAGEKAKGAVAASDAFFPFPDSLEILAQAGVKAVVAPLGSIRDEEVIEKARELGITFYKAPSRVFRH	soluble
